Assay results: patent publication US20240034813A1 (Janssen / Centocor, published 2024)

What was measured:
[1] = target: T1, recombinant cMet/HGFR with c-terminal His-tag, Cy5-labeled (UniProt P08581 25-932, limits assumed, Cy5 label (reacted with Cy5 Mono NHS Ester; sites not stated)); test: competitive TR-FRET (Eu-amivantamab/Cy5-c-MET), EC50 ratio vs Reference Material; Ex. 2 Formulation 1 (10 mM histidine), T0, 40 C table
T1 construct: Commercial protein; also called Cy5-c-MET; Cy5-labeled c-MET antigen; not shown: C-terminal His-tag
Excerpt: (§1) In this procedure, varying concentrations of unlabeled bispecific EGFR-cMet antibody sample compete with donor fluorophore (Europium (Eu) chelate) labeled bispecific EGFR-cMet antibody for binding to an acceptor fluorophore (Cy5)-labeled c-MET antigen. Excitation of the donor fluorophore results in a transfer of energy to the bound acceptor fluorophore (FRET process). The resultant FRET is detected by emission of light at 665 nm using a microplate reader capable of measuring time-resolved fluorescence. Sample dose response curves are compared to the Reference Material (RM).
(§2) c-MET Binding Materials and Methods. Certified commercial cMet, a recombinant cMet/HGFR with c-terminal His-tag is reacted with certified commercial Cy5 Mono NHS Ester to produce Cy5-labeled c-MET. Validated bispecific EGFR-cMet antibody is reacted with certified commercial Europium (Eu) chelate to produce Eu labeled bispecific EGFR-cMet antibody. […] Fluorescence is then measured by spectrophotometry at 665 nm, plotted against antibody concentration and analyzed by a four-parameter logistic model. The antibody concentration required to obtain half of the maximum fluorescence response (EC50) is determined for RM, assay control and samples. The potencies of assay control and samples are calculated based on the ratio of the sample (or control) and RM EC50 values and reported as a percentage activity relative to the RM.

[2] = target: T2, recombinant human EGFR/ErbB1/HER1 with C-terminal His tag, Cy5-labeled (human, UniProt P00533 25-645, Cy5 label (reacted with Cy5 Mono NHS Ester; sites not stated)); test: competitive TR-FRET (Eu-amivantamab/Cy5-EGFR), EC50 ratio vs Reference Material; Ex. 3 acetate formulation, 6 months at 25 C then shaking up to 72 h
T2 construct: Commercial protein; also called Cy5-EGFR; Cy5-labeled EGFR antigen; not shown: C-terminal His tag
Excerpt: as §1, with “EGFR” for “c-MET”, “RM.” for “Reference Material (RM).”
as §2, with “EGFR” for “c-MET”, “EGFR,” for “cMet,”, “human EGFR/ErbB1/HER1” for “cMet/HGFR”, “C-terminal His tag” for “c-terminal His-tag”, “EGFR.” for “c-MET.”, “Eu-labeled” for “Eu labeled”

[3] = target: T2, recombinant human EGFR/ErbB1/HER1 with …; test: competitive TR-FRET (Eu-amivantamab/Cy5-EGFR), EC50 ratio vs Reference Material; Ex. 12 drug product with rHuPH20, 0 months, 40 C table
Excerpt: as §1, with “EGFR” for “c-MET”, “RM.” for “Reference Material (RM).”
as §2, with “EGFR” for “c-MET”, “EGFR,” for “cMet,”, “human EGFR/ErbB1/HER1” for “cMet/HGFR”, “C-terminal His tag” for “c-terminal His-tag”, “EGFR.” for “c-MET.”, “Eu-labeled” for “Eu labeled”

[4] = target: T1, recombinant cMet/HGFR with c-terminal …; test: competitive TR-FRET (Eu-amivantamab/Cy5-c-MET), EC50 ratio vs Reference Material; Ex. 3 acetate formulation, 6 months at 25 C then shaking up to 72 h
Excerpt: as §1, §2

[5] = target: T1, recombinant cMet/HGFR with c-terminal …; test: competitive TR-FRET (Eu-amivantamab/Cy5-c-MET), EC50 ratio vs Reference Material; Ex. 2 Formulation 3 (acetate), T0, 5 C table
Excerpt: as §1, §2

[6] = target: T2, recombinant human EGFR/ErbB1/HER1 with …; test: competitive TR-FRET (Eu-amivantamab/Cy5-EGFR), EC50 ratio vs Reference Material; Ex. 11 drug product, 1 month at 40 C
Excerpt: as §1, with “EGFR” for “c-MET”, “RM.” for “Reference Material (RM).”
as §2, with “EGFR” for “c-MET”, “EGFR,” for “cMet,”, “human EGFR/ErbB1/HER1” for “cMet/HGFR”, “C-terminal His tag” for “c-terminal His-tag”, “EGFR.” for “c-MET.”, “Eu-labeled” for “Eu labeled”

[7] = target: T2, recombinant human EGFR/ErbB1/HER1 with …; test: competitive TR-FRET (Eu-amivantamab/Cy5-EGFR), EC50 ratio vs Reference Material; Ex. 12 drug product with rHuPH20, 3 months at 5 C
Excerpt: as §1, with “EGFR” for “c-MET”, “RM.” for “Reference Material (RM).”
as §2, with “EGFR” for “c-MET”, “EGFR,” for “cMet,”, “human EGFR/ErbB1/HER1” for “cMet/HGFR”, “C-terminal His tag” for “c-terminal His-tag”, “EGFR.” for “c-MET.”, “Eu-labeled” for “Eu labeled”

[8] = target: T2, recombinant human EGFR/ErbB1/HER1 with …; test: competitive TR-FRET (Eu-amivantamab/Cy5-EGFR), EC50 ratio vs Reference Material; Ex. 11 drug product, 3 months at 5 C
Excerpt: as §1, with “EGFR” for “c-MET”, “RM.” for “Reference Material (RM).”
as §2, with “EGFR” for “c-MET”, “EGFR,” for “cMet,”, “human EGFR/ErbB1/HER1” for “cMet/HGFR”, “C-terminal His tag” for “c-terminal His-tag”, “EGFR.” for “c-MET.”, “Eu-labeled” for “Eu labeled”

B1: amivantamab (bispecific antibody, human IgG1, kappa)
heavy 1: not shown
light 1: not shown
heavy 2: not shown
light 2: DIQMTQSPSSVSASVGDRVTITCRASQGISNWLAWFQHKPGKAPKLLIYAASSLLSGVPSRFSGSGSGTDFTLTISSLQPEDFATYYCQQANSFPITFGQGTRLEIKRTVAAPSVFIFPPSDEQLKSGTASVVCLLNNFYPREAKVQWKVDNALQSGNSQESVTEQDSKDSTYSLSSTLTLSKADYEKHKVYACEVTHQGLSSPVTKSFNRGEC
notes: The samples tested were high concentration (160 mg/mL) formulations, fresh or stored or stressed; also called JNJ-61186372; bispecific EGFR-cMet antibody
cMET Binding % activity relative to RM [1]: 87%
EGFR Binding % activity relative to RM [2]: 86%
EGFR Binding activity relative to Reference Material (%) [3]: 92%
cMET Binding % activity relative to RM [4]: 97%
cMET Binding % activity relative to RM [5]: 94%
EGFR Binding activity relative to Reference Material (%) [6]: 39%
EGFR Binding activity relative to Reference Material (%) [7]: 82%
EGFR Binding activity relative to Reference Material (%) [8]: 74%
